Columns and labels:
[1] = target: T1, LGR4 extracellular (ligand-binding) domain, L62 to V464, His-tagged (UniProt A2ARI4 62-464); assay: MST
T1 sequence (looked up): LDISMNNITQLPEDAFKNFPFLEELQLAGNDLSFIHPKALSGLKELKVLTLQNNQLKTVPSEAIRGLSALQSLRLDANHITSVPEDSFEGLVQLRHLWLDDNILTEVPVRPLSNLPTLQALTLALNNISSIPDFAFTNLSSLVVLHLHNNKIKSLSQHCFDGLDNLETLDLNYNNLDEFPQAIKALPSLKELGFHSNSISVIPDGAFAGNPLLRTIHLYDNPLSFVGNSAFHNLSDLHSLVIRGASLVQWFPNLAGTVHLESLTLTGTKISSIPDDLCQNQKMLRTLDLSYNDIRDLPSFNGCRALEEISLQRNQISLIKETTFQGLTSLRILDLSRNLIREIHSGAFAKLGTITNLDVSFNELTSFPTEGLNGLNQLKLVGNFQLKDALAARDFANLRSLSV

[2] = target: T2, RANK extracellular (ligand-binding) domain, Q30 to P213, His-tagged (UniProt O35305 30-213); assay: MST
T2 sequence (looked up): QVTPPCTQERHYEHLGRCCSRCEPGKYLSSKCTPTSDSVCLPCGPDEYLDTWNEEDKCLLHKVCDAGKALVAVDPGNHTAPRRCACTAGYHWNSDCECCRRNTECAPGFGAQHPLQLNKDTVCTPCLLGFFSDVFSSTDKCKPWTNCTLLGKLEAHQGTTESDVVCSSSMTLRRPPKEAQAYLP

Kd [1]: 409 nM
Kd [2]: 33.3 nM
B1: wild-type RANKL (receptor activator of nuclear factor-κB ligand) (ligand, UniProt O35235 139-316, looked up)
chain: FSGAPAMMEGSWLDVAQRGKPEAQPFAHLTINAASIPSGSHKVTLSSWYHDRGWAKISNMTLSNGKLRVNQDGFYYLYANICFRHHETSGSVPTDYLQLMVYVVKTSIKIPSSHNLMKGGSTKNWSGNSEFHFYSINVGGFFKLRAGEEISIQVSNPSLLDPDQDATYFGAFKVQDID

From paper PMC10712694 (International Journal of Molecular Medicine, 2023)
